Data: patent US20180172684A1

Key:
[1] = target: P30 protein of Mycoplasma pneumoniae as present in Mycoplasma pneumoniae analytes (deactivated Mycoplasma pneumoniae Antigen (FH), Meridian; pharyngeal swabs of infected subjects) (Mycoplasma pneumoniae) (UniProt P75330); assay: immunochromatography sandwich (Ex. 2), label P30(a), detection P30(a); deactivated Mycoplasma pneumoniae (FH); Triton X-100/Tween 20 diluent
[2] = target: full-length protein mycoplasma pneumonia P30 (amino acids 1-274; SEQ ID NO: 1) (Mycoplasma pneumoniae) (UniProt P75330); assay: ELISA, full-length P30 coated, 5 ug/mL P30(a), no peptide (0 point of the peptide 2 series)
[3] = target: full-length protein mycoplasma pneumonia P30 (amino acids 1-274; SEQ ID NO: 1) (Mycoplasma pneumoniae) (UniProt P75330); assay: ELISA, full-length P30 coated, 5 ug/mL P30(a), no peptide (0 point of the peptide 1 series)
[4] = target: P30 protein of Mycoplasma pneumoniae as present in Mycoplasma pneumoniae analytes (deactivated Mycoplasma pneumoniae Antigen (FH), Meridian; pharyngeal swabs of infected subjects) (Mycoplasma pneumoniae) (UniProt P75330); assay: immunochromatography sandwich (Ex. 2), label P30(a), detection P30(a); pharyngeal swab Subject 2; Triton X-100/Tween 20 diluent
[5] = target: mycoplasma pneumonia P30 (purified protein P30Ag produced by expressing amino acids 96-274 with Escherichia coli) (Mycoplasma pneumoniae) (UniProt P75330); assay: immunochromatography sandwich, P30(a)-gold label and P30(a) detection line, P30Ag 10 pg/mL, no peptide
[6] = target: P30 protein of Mycoplasma pneumoniae as present in Mycoplasma pneumoniae analytes (deactivated Mycoplasma pneumoniae Antigen (FH), Meridian; pharyngeal swabs of infected subjects) (Mycoplasma pneumoniae) (UniProt P75330); assay: immunochromatography sandwich (Ex. 2), label P30(a), detection P30(a); pharyngeal swab Subject 1; Triton X-100/Tween 20 diluent
[7] = target: P30 protein of Mycoplasma pneumoniae as present in Mycoplasma pneumoniae analytes (deactivated Mycoplasma pneumoniae Antigen (FH), Meridian; pharyngeal swabs of infected subjects) (Mycoplasma pneumoniae) (UniProt P75330); assay: immunochromatography sandwich (Ex. 1), label P30(a), detection P30(a); deactivated Mycoplasma pneumoniae (FH); NP-40/MN-811 diluent
[8] = target: P30 protein of Mycoplasma pneumoniae as present in Mycoplasma pneumoniae analytes (deactivated Mycoplasma pneumoniae Antigen (FH), Meridian; pharyngeal swabs of infected subjects) (Mycoplasma pneumoniae) (UniProt P75330); assay: immunochromatography sandwich (Ex. 1), label P30(a), detection P30(a); pharyngeal swab Subject 2, diluted 20 times
[9] = target: P30 protein of Mycoplasma pneumoniae as present in Mycoplasma pneumoniae analytes (deactivated Mycoplasma pneumoniae Antigen (FH), Meridian; pharyngeal swabs of infected subjects) (Mycoplasma pneumoniae) (UniProt P75330); assay: immunochromatography sandwich (Ex. 1), label P30(a), detection P30(a); pharyngeal swab Subject 1, diluted 20 times
[10] = target: mycoplasma pneumonia P30 (purified protein P30Ag produced by expressing amino acids 96-274 with Escherichia coli) (Mycoplasma pneumoniae) (UniProt P75330); assay: ELISA, P30Ag coated at 4 ng/mL, antibody 5 ug/mL, anti-mouse IgG-peroxidase
[11] = target: mycoplasma pneumonia P30 (purified protein P30Ag produced by expressing amino acids 96-274 with Escherichia coli) (Mycoplasma pneumoniae) (UniProt P75330); assay: immunochromatography sandwich (Ex. 3), label P30(a), detection P30(a); analyte P30Ag; Triton X-100/Tween 20 diluent

Work on “antibody P30(a) (Fucal Research product Mp-P30-3-AB)” yielded a Color intensity (mAbs) [1] of 490 mAbs, a Color intensity (Abs) [2] of 0.411 Abs and a Color intensity (Abs) [3] of 0.411 Abs. It also gave a Color intensity (mAbs) [4] of 51.7 mAbs, a Color intensity after 15 min [5] of 251 mAbs and a Color intensity (mAbs) [6] of 117 mAbs. It also gave a Color intensity (mAbs) [7] of 273 mAbs, a Color intensity (mAbs) [8] of 28.7 mAbs and a Color intensity (mAbs) [9] of 41.8 mAbs. The absorbance at 450 nm after subtracting the blank [10] was 0.403 Abs and the Color intensity (mAbs) [11] was 180 mAbs.
